# Experimental data reported in patent US20090162369A1, “SYNTHETIC CHIMERIC PEPTIDES” (priority 2007, published 2009).
# Experiments:
# [1] = target: p145 (Streptococcus pyogenes serotype M5, UniProt P02977); conditions: FIG. 3
# Protocol: The purified anti-TN peptide antibodies were tested for their ability to bind to p145.
# [2] = tested on: B10.BR mice; assay: Peptide-specific serum IgG titres of B10.BR mice immunised with peptides conjugated to diphtheria toxoid; assay type: in vivo; conditions: peptides conjugated to DT
# From the text: FIG. 9: The geometric mean of peptide-specific serum IgG titres of B10.BR mice immunised with different peptides conjugated to diphtheria toxoid (DT). Control mice were immunised with vehicle (PBS). Five mice were immunised per group and error bars show the standard error of the mean (SEM). The highest titres were obtained after primary immunisation plus two booster injections. Although titres had decreased 43 days after the final boost (Day 71), they remained reasonably high.
# Female B10.BR mice were immunized with TN18, TN19, J18 and J19 peptides conjugated to diphtheria toxoid (DT). The following immunization protocol was used.
# The peptide specific titres in the murine sera samples on day 35, after primary immunization and two boosters, were analyzed.
# The self-peptide titres throughout the immunization protocol were analyzed at day 20, day 27, day 35 and day 71.
# [3] = tested on: multiple isolates of GAS; conditions: Pruksakorn et al., 1994a; cited from earlier work
# [4] = tested on: GAS; conditions: cited from earlier work
Sequence,binding affinity of purified anti-TN peptide antibodies for p145 [1],further results
LRRDLDAEDEAKKQVEKALEC [TN peptide 3],highest binding affinities,–
QAEDKVKQSREAKNQVERALKQLEDKVQ [J18],–,immunogenicity compared with the peptides disclosed in WO96/11944 [2]: improved immunogenicity
LRRDLDASREAKNQVEMALEC [TN peptide 19],highest binding affinities,–
LRRDLDASNEAKKQVEMALEC [TN peptide 14],highest binding affinities,–
LRRDLDAEREAKKQVERALEC [TN peptide 5],highest binding affinities,–
LRRDLDASREAKKQVEKALE [p145],–,opsonisation and killing of GAS by mouse antibodies raised against the peptide [3]: can opsonise and kill multiple isolates of GAS; inhibition of in vitro killing mediated by human sera [4]: can inhibit in vitro killing mediated by human sera
LRRDLDAVREAKKQVEMALEC [TN peptide 11],highest binding affinities,–
QAEDKVKQSREAKNQVEMALKQLEDKVQ [J19],–,immunogenicity compared with the peptides disclosed in WO96/11944 [2]: improved immunogenicity
LRRDLDAVNEAKKQVEKALEC [TN peptide 7],highest binding affinities,–
LRRDLDASREAKNQVERALEC [TN peptide 18],highest binding affinities,–
